This note sets out measurements from patent publication US20250346668A1 (GENOR BIOPHARMA, published 2025).

The target in the assay is T1, human CD3e/g antigen (ACRO, catalog number CDG-H52W5) (human, UniProt P07766 23-126; P09693 23-116).
T1 construct: Bought reagent used as the Biacore analyte; also called hCD3e/g
Briefly: SPR (Biacore 8K), antibody captured via anti-human Fc. Here is the method: The equilibrium dissociation constant of binding of CD3 antibodies to human CD3e/g antigen (purchased from ACRO, catalog number CDG-H52W5) was determined by kinetic binding method using Biacore 8K (GE) system. Through the capture method, the carboxylated dextran surface of CM5 chip was first activated with NHS (N-hydroxysuccinimide) and EDC (1-(3-dimethylaminopropyl)-3-ethylcarbodiimide hydrochloride), and then added with an anti-human IgG (Fc) antibody, the free amino group of which could form an amide bond with the activated carboxyl group, thereby being fixed on the chip surface. The anti-human IgG (Fc) antibody could bind to the Fc end of CD3 antibodies to capture the antibodies, and then a series of concentrations of antigen were added to obtain the binding and dissociation curves of antibody and antigen, and the corresponding kinetic constants were calculated by Biacore Evaluation software, as shown in the table below.

B1: hAb008-21 (antibody, V domains shown)
VH: QVQLVQSGAEVKKPGASVKVSCKASGYTFTDYTVNWVRQAPGQRLEWIGYINPFNSYTKYNQKFKDRVTITADTSASTAYMELSSLRSEDTAVYYCANSVSTYWGQGTTVTVSS
VL: DVVMTQSPLSLPVTLGQPASISCKSSQSLLDSDGKTYLNWFQQRPGQSPRRLIQLVSKLNSGVPDRFSGSGSGTDFTLKISRVEAEDVGVFYCWQGTHFPRTFGGGTKLEIK
notes: Humanized; constant regions not specified
What is called Kd is a measure of binding affinity in units of concentration. The low end stands for a tighter complex, the high end for a looser complex. Usually koff stands for the first-order rate constant of dissociation. High values mean a short-lived complex, low ones a long-lived complex. By kon is commonly meant the second-order rate constant of association. Consider B1, for which the Kd worked out at 18.6 nM, the koff was 0.00382 s⁻¹ and the kon is 205000 M⁻¹ s⁻¹.

B2: hAb008-16 (antibody, V domains shown)
VH: QVQLVQSGAEVKKPGASVKVSCKASGYTFTDYTVNWVRQAPGQRLEWMGYINPFNSYTKYNQKFKDRVTITRDTSASTAYMELSSLRSEDTAVYYCARSVSTYWGQGTTVTVSS
VL: DVVMTQSPLSLPVTLGQPASISCKSSQSLLDSDGKTYLNWFQQRPGQSPRRLIYLVSKLNSGVPDRFSGSGSGTDFTLKISRVEAEDVGVYYCWQGTHFPRTFGGGTKLEIK
notes: as for B1
On to B2, for which the Kd was 18.6 nM, the koff came to 0.00189 s⁻¹ and the kon was determined as 101000 M⁻¹ s⁻¹.

B3: hAb008-22 (antibody, V domains shown)
VH: QVQLVQSGAEVKKPGASVKVSCKASGYTFTDYTVNWVRQAPGQRLEWIGYINPFNSYTKYNQKFKDRVTITADTSASTAYMELSSLRSEDTAVYYCANSVSTYWGQGTTVTVSS
VL: DVVMTQSPLSLPVTLGQPASISCKSSQSLLDSDGKTYLNWLQQRPGQSPRRLIQLVSKLNSGVPDRFSGSGSGTDFTLKISRVEAEDVGVFYCWQGTHFPRTFGGGTKLEIK
notes: as for B1
Take B3: the dissociation constant Kd stood at 20.6 nM, the koff amounted to 0.00588 s⁻¹ and the kon came to 285000 M⁻¹ s⁻¹.

B4: hAb008-20 (antibody, V domains shown)
VH: QVQLVQSGAEVKKPGASVKVSCKASGYTFTDYTVNWVRQAPGQRLEWIGYINPFNSYTKYNQKFKDRVTITADTSASTAYMELSSLRSEDTAVYYCANSVSTYWGQGTTVTVSS
VL: DVVMTQSPLSLPVTLGQPASISCKSSQSLLDSDGKTYLNWFQQRPGQSPRRLIYLVSKLNSGVPDRFSGSGSGTDFTLKISRVEAEDVGVYYCWQGTHFPRTFGGGTKLEIK
notes: as for B1
On to B4, for which the Kd came out at 14.5 nM, the koff stood at 0.00152 s⁻¹ and the kon came out at 105000 M⁻¹ s⁻¹.

B5: hAb008-18 (antibody, V domains shown)
VH: QVQLVQSGAEVKKPGASVKVSCKASGYTFTDYTVNWVRQAPGQRLEWMGYINPFNSYTKYNQKFKDRVTITRDTSASTAYMELSSLRSEDTAVYYCARSVSTYWGQGTTVTVSS
VL: DVVMTQSPLSLPVTLGQPASISCKSSQSLLDSDGKTYLNWLQQRPGQSPRRLIQLVSKLNSGVPDRFSGSGSGTDFTLKISRVEAEDVGVFYCWQGTHFPRTFGGGTKLEIK
notes: as for B1
Turning to B5, the Kd was 33.9 nM, the dissociation rate constant (koff) was 0.00691 s⁻¹ and the kon turned out to be 204000 M⁻¹ s⁻¹.

B6: hAb008-19 (antibody, V domains shown)
VH: QVQLVQSGAEVKKPGASVKVSCKASGYTFTDYTVNWVRQAPGQRLEWMGYINPFNSYTKYNQKFKDRVTITRDTSASTAYMELSSLRSEDTAVYYCARSVSTYWGQGTTVTVSS
VL: DVVMTQSPLSLPVTLGQPASISCKSSQSLLDSDGKTYLNWLLQRPGQSPRRLIQLVSKLNSGVPDRFSGSGSGTDFTLKISRVEAEDVGVFYCWQGTHFPRTFGGGTKLEIK
notes: as for B1
For B6, the Kd was 26.1 nM, the off-rate constant (koff) is 0.00573 s⁻¹ and the kon stood at 219000 M⁻¹ s⁻¹.

B7: hAb008-17 (antibody, V domains shown)
VH: QVQLVQSGAEVKKPGASVKVSCKASGYTFTDYTVNWVRQAPGQRLEWMGYINPFNSYTKYNQKFKDRVTITRDTSASTAYMELSSLRSEDTAVYYCARSVSTYWGQGTTVTVSS
VL: DVVMTQSPLSLPVTLGQPASISCKSSQSLLDSDGKTYLNWFQQRPGQSPRRLIQLVSKLNSGVPDRFSGSGSGTDFTLKISRVEAEDVGVFYCWQGTHFPRTFGGGTKLEIK
notes: as for B1
On to B7, for which the Kd came to 7.57 nM, the koff was found to be 0.00126 s⁻¹ and the kon worked out at 167000 M⁻¹ s⁻¹.

B8: hAb001-17 (antibody, V domains shown)
VH: QVQLVQSGAEVKKPGASVKVSCKASGYSFTNYYMHWVRQAPGQRLEWMGWTYPGNNNIKYNEKFKGRVTITRDTSASTAYMELSSLRSEDTAVYYCARDGYGYYFFDYWGQGTLVTVSS
VL: DIVMTQSPDSLAVSLGERATINCKSSQSLLNNRTRKNYLAWYQQKPGQPPKLLIYWASTRESGVPDRFSGSGSGTDFTLTISSLQAEDVAVYYCKQSYTLRTFGGGTKLEIK
notes: as for B1
Take B8: binding was characterised by a dissociation constant (Kd) of 15.7 nM, the koff is 0.00452 s⁻¹ and the association rate constant (kon) came out at 288000 M⁻¹ s⁻¹.

B9: hAb001-32 (antibody, V domains shown)
VH: QVQLVQSGAEVKKPGASVKVSCKASGYSFTNYYMHWVKQAPGQRLEWIGWTYPGNNNIKYNEKFKGRATITADTSASTAYMELSSLRSEDTAVYYCARDGYGYYFFDYWGQGTLVTVSS
VL: DIVMTQSPDSLAVSLGERATMSCKSSQSLLNNRTRKNYLAWYQQKPGQPPKLLIYWASTRESGVPDRFTGSGSGTDFTLTISSLQAEDVAVYYCKQSYTLRTFGGGTKLEIK
notes: as for B1
Consider B9, for which the dissociation constant Kd came to 16.8 nM, the off-rate constant (koff) stood at 0.00497 s⁻¹ and the kon came to 296000 M⁻¹ s⁻¹.

B10: hAb001-31 (antibody, V domains shown)
VH: QVQLVQSGAEVKKPGASVKVSCKASGYSFTNYYMHWVKQAPGQRLEWIGWTYPGNNNIKYNEKFKGRATITADTSASTAYMELSSLRSEDTAVYYCARDGYGYYFFDYWGQGTLVTVSS
VL: DIVMTQSPDSLAVSLGERATMSCKSSQSLLNNRTRKNYLAWYQQKPGQPPKLLIYWASTRESGVPDRFSGSGSGTDFTLTISSLQAEDVAVYYCKQSYTLRTFGGGTKLEIK
notes: as for B1
Regarding B10, the Kd turned out to be 19.7 nM, the koff was found to be 0.00624 s⁻¹ and the kon was 317000 M⁻¹ s⁻¹.

B11: hAb001-25 (antibody, V domains shown)
VH: QVQLVQSGAEVKKPGASVKVSCKASGYSFTNYYMHWVRQAPGQRLEWIGWTYPGNNNIKYNEKFKGRATITADTSASTAYMELSSLRSEDTAVYYCARDGYGYYFFDYWGQGTLVTVSS
VL: DIVMTQSPDSLAVSLGERATINCKSSQSLLNNRTRKNYLAWYQQKPGQPPKLLIYWASTRESGVPDRFSGSGSGTDFTLTISSLQAEDVAVYYCKQSYTLRTFGGGTKLEIK
notes: as for B1
Molecule B11 had a Kd of 22.6 nM, a koff of 0.00896 s⁻¹ and a kon of 397000 M⁻¹ s⁻¹.

B12: hAb001-18 (antibody, V domains shown)
VH: QVQLVQSGAEVKKPGASVKVSCKASGYSFTNYYMHWVRQAPGQRLEWMGWTYPGNNNIKYNEKFKGRVTITRDTSASTAYMELSSLRSEDTAVYYCARDGYGYYFFDYWGQGTLVTVSS
VL: DIVMTQSPDSLAVSLGERATINCKSSQSLLNNRTRKNYLAWYQQKPGQPPKLLIYWASTRESGVPDRFTGSGSGTDFTLTISSLQAEDVAVYYCKQSYTLRTFGGGTKLEIK
notes: as for B1
Turning to B12, the dissociation constant (Kd) worked out at 35.2 nM, the koff worked out at 0.0121 s⁻¹ and the kon worked out at 343000 M⁻¹ s⁻¹.

B13: hAb001-29 (antibody, V domains shown)
VH: QVQLVQSGAEVKKPGASVKVSCKASGYSFTNYYMHWVKQAPGQRLEWIGWTYPGNNNIKYNEKFKGRATITADTSASTAYMELSSLRSEDTAVYYCARDGYGYYFFDYWGQGTLVTVSS
VL: DIVMTQSPDSLAVSLGERATINCKSSQSLLNNRTRKNYLAWYQQKPGQPPKLLIYWASTRESGVPDRFSGSGSGTDFTLTISSLQAEDVAVYYCKQSYTLRTFGGGTKLEIK
notes: as for B1
B13 had a Kd of 22.8 nM, a koff of 0.00722 s⁻¹ and a kon of 316000 M⁻¹ s⁻¹.

B14: hAb001-19 (antibody, V domains shown)
VH: QVQLVQSGAEVKKPGASVKVSCKASGYSFTNYYMHWVRQAPGQRLEWMGWTYPGNNNIKYNEKFKGRVTITRDTSASTAYMELSSLRSEDTAVYYCARDGYGYYFFDYWGQGTLVTVSS
VL: DIVMTQSPDSLAVSLGERATMSCKSSQSLLNNRTRKNYLAWYQQKPGQPPKLLIYWASTRESGVPDRFSGSGSGTDFTLTISSLQAEDVAVYYCKQSYTLRTFGGGTKLEIK
notes: as for B1
B14 returned a dissociation constant (Kd) of 94.5 nM, a koff of 0.0354 s⁻¹ and a kon of 375000 M⁻¹ s⁻¹.

B15: hAb001-30 (antibody, V domains shown)
VH: QVQLVQSGAEVKKPGASVKVSCKASGYSFTNYYMHWVKQAPGQRLEWIGWTYPGNNNIKYNEKFKGRATITADTSASTAYMELSSLRSEDTAVYYCARDGYGYYFFDYWGQGTLVTVSS
VL: DIVMTQSPDSLAVSLGERATINCKSSQSLLNNRTRKNYLAWYQQKPGQPPKLLIYWASTRESGVPDRFTGSGSGTDFTLTISSLQAEDVAVYYCKQSYTLRTFGGGTKLEIK
notes: as for B1
Consider B15, for which binding was put at a Kd of 25.8 nM, the koff worked out at 0.00835 s⁻¹ and the kon was 324000 M⁻¹ s⁻¹.

B16: hAb001-20 (antibody, V domains shown)
VH: QVQLVQSGAEVKKPGASVKVSCKASGYSFTNYYMHWVRQAPGQRLEWMGWTYPGNNNIKYNEKFKGRVTITRDTSASTAYMELSSLRSEDTAVYYCARDGYGYYFFDYWGQGTLVTVSS
VL: DIVMTQSPDSLAVSLGERATMSCKSSQSLLNNRTRKNYLAWYQQKPGQPPKLLIYWASTRESGVPDRFTGSGSGTDFTLTISSLQAEDVAVYYCKQSYTLRTFGGGTKLEIK
notes: as for B1
B16: the Kd is 10.8 nM, the koff came out at 0.00303 s⁻¹ and the kon came out at 281000 M⁻¹ s⁻¹.

B17: hAb001-24 (antibody, V domains shown)
VH: QVQLVQSGAEVKKPGASVKVSCKASGYSFTNYYMHWVRQAPGQRLEWIGWTYPGNNNIKYNEKFKGRVTITADTSASTAYMELSSLRSEDTAVYYCARDGYGYYFFDYWGQGTLVTVSS
VL: DIVMTQSPDSLAVSLGERATMSCKSSQSLLNNRTRKNYLAWYQQKPGQPPKLLIYWASTRESGVPDRFTGSGSGTDFTLTISSLQAEDVAVYYCKQSYTLRTFGGGTKLEIK
notes: as for B1
B17 displayed a Kd of 16.6 nM, a koff of 0.00655 s⁻¹ and an on-rate (kon) of 394000 M⁻¹ s⁻¹.
